Consider one molecule from US20250066499A1 (SUNSHINE GUOJIAN PHARMACEUTICAL SHANGHAI, published 2025).

The target in experiment [1] is T1, CD73-ND-his (human, UniProt P21589 27-317).
T1 construct: Biotinylated and captured on streptavidin in the ELISA
T1 sequence: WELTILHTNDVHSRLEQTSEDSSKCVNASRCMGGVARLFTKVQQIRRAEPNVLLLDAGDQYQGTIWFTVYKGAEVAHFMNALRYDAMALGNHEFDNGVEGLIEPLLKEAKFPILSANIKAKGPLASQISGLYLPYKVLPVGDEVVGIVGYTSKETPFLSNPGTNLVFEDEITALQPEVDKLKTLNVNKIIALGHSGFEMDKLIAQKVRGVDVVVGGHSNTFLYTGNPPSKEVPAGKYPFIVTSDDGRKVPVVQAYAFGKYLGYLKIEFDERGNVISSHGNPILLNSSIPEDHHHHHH
Description: ELISA, high plateau value (OD 450 nm). How it is done: (§1) The ELISA plates were coated with SA protein diluted to 1.5 μg/mL in coating buffer (50 mM carbonate coating buffer, pH 9.6) and incubated overnight at 4° C. The supernatant was discarded, and the plates were washed three times with PBST. Then, 5% skimmed milk powder prepared with PBS was added for blocking and the plates were incubated for 2 h at 37° C. After washing the plates once with PBST, CD73-biotin protein (prepared by biotinylating CD73-His protein according to the EZ-Link NHS-Biotin Reagent instructions) was diluted to 0.5 μg/mL and added at 100 μL/well for incubation at room temperature for 1 h. The plates were washed three times with PBST, and the prepared murine-derived monoclonal antibodies against human CD73 were serially diluted with 1% BSA buffer prepared with PBST and added to the ELISA plates at 100 μl/well. The plates were incubated at 37° C. for 1 h. After washing the plates three times with PBST, HRP-labeled goat anti-mouse IgG secondary antibody was added and the plates were incubated for 30 min at 37° C. After washing the plates three times with PBST, the residual droplets were patted dry on absorbent paper as much as possible. Then, 100 μl of TMB color developing solution was added to each well, and the plates were incubated in the dark at room temperature for 5 min for color development. Subsequently, 50 μl of 2M H₂SO₄ stop solution was added to each well to terminate the substrate reaction. The OD values were read at 450 nm using a multimode microplate reader to analyze the binding ability of the tested antibodies to the target antigen human CD73-His.
(§2) Referring to the experimental method in Example 3, the affinity of 48A11-HuV33 for various mutant proteins of CD73-ND was determined. The SA protein was diluted to 1 μg/mL for coating the ELISA plates, and the biotinylated CD73 protein (CD73-biotin) was used at a concentration of 0.1 μg/mL.
(An ELISA detects its analyte on a solid surface through an enzyme-linked reagent.)

The target in another experiment is T2, CD73-ND-E143A (human, UniProt P21589 27-317).
T2 construct: Alanine mutant of CD73-ND
T2 sequence: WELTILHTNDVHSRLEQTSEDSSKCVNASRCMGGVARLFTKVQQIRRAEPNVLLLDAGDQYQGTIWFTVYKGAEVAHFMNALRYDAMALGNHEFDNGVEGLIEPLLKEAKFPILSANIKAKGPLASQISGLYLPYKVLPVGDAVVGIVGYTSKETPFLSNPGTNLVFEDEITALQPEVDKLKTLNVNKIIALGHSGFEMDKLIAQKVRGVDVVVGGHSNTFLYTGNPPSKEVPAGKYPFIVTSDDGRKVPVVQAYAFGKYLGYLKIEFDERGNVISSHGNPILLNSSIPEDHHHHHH
As to the kind of experiment: ELISA, high plateau value (OD 450 nm). How it is done:
as §1, §2

The target in another experiment is T3, CD73-ND-K180A (human, UniProt P21589 27-317).
T3 construct: Alanine mutant of CD73-ND
T3 sequence: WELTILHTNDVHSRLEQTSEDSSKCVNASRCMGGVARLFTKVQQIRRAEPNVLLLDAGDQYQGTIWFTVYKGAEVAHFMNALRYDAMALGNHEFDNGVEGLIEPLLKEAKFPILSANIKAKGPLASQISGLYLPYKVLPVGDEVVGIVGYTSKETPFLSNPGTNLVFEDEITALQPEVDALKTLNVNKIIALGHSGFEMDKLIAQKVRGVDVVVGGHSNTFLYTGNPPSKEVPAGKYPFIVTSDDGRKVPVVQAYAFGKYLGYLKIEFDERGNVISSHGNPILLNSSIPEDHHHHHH
As to the kind of experiment: ELISA, high plateau value (OD 450 nm). How it is done: as §1, §2

Another experiment has as its target T4, CD73-ND-L181A (human, UniProt P21589 27-317).
T4 construct: Alanine mutant of CD73-ND
T4 sequence: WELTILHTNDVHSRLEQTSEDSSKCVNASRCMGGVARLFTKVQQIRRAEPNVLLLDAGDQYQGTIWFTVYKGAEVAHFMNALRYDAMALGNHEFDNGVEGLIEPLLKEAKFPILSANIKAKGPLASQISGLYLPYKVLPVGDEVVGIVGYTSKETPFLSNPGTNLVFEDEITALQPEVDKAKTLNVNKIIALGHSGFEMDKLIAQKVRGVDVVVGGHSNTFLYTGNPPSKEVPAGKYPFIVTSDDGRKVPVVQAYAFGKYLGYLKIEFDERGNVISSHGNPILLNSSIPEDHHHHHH
Description: ELISA, high plateau value (OD 450 nm). How it is done:
as §1, §2

The next experiment has as its target T5, CD73-ND-K182A (human, UniProt P21589 27-317).
T5 construct: Alanine mutant of CD73-ND
T5 sequence: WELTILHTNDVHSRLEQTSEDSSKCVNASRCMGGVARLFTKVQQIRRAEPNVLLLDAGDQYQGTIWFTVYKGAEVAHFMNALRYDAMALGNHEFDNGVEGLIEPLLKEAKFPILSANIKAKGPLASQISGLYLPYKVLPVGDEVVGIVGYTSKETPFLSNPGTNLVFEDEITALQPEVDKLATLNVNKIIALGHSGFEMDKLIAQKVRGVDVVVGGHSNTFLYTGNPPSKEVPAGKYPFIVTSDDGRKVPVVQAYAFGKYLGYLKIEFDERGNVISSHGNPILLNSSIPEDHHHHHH
As to the kind of experiment: ELISA, high plateau value (OD 450 nm). How it is done: as §1, §2

A further experiment has as its target T6, CD73-ND-T183A (human, UniProt P21589 27-317).
T6 construct: Alanine mutant of CD73-ND
T6 sequence: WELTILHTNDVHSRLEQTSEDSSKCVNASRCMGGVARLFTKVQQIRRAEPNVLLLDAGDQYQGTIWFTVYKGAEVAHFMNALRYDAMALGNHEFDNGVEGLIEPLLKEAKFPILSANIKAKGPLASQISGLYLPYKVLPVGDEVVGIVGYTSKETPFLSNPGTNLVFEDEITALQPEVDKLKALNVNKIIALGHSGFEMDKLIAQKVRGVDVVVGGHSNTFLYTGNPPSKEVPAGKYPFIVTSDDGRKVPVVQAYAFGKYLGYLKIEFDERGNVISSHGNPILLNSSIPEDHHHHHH
As to the kind of experiment: ELISA, high plateau value (OD 450 nm). How it is done: as §1, §2

Experiment [2] deals with T1, CD73-ND-his. Description: ELISA as in Example 3, antigen CD73-ND-his, antibody titrated, absorbance 450 nm.

B1: 48A11-HuV33 (antibody, human IgG4, V domains shown)
VH: QVQLVQSGAEVKKPGASVKVSCKASGYTFTSYWMHWVRQAPGQGLEWIGEINPSIGRTNYNEKFKSRVTLTRDTSTSTAYMELSSLRSEDTAVYYCARRVYGTMDYWGQGTLVTVSS
VL: DIQMTQSPSSLSASVGDRVTITCKASQDINSYLSWFQQKPGKSPKLLIYRANIWVDGVPSRFSGSGSGQDYTFTISSLQPEDIATYYCLQYDELYTFGQGTKVEIK
notes: Humanized
As to B1, the Top in the experiment with CD73-ND-his [1] is 1.98; with CD73-ND-E143A it was 1.77; in the experiment with CD73-ND-K180A, 1.74; in the experiment with CD73-ND-L181A, 1.05; with CD73-ND-K182A, 2.03; with CD73-ND-T183A, 1.98. Besides, in the experiment with CD73-ND-his [2], the 50% effective concentration (EC50 (read off the curve)) is approximately 0.04 nM.

By EC50 (read off the curve) is commonly meant the concentration giving half of the maximal effect. A lower EC50 (read off the curve) goes with an effect from little substance.
